Measured values published in US20170240619A1 (GARVAN INSTITUTE OF MEDICAL RESEARCH, published 2017).

Biological target: T1, HER2 on SK-BR-3 human breast cancer cells (human, UniProt P04626 23-1255)
T1 construct: whole, on cells; also called SK-BR-3 cells; whole cell (SK-BR-3)
Test: flow cytometry on SK-BR-3 cells, human IgG1, anti-human IgG-FITC detection
Procedure: Following washes in PBS containing 1% BSA, secondary antibody anti-human IgG-FITC (Sigma) was added for 30 min on ice. Fluorescence intensity of the live cell population was recorded using FACSCalibur (BD Biosciences) and analyzed using FlowJo 7.6.5 software (Tree Star).

| Binder | EC50 [µg/mL] |
| --- | --- |
| 4D5 as human IgG1, VH 30D (30D/WT) (antibody, V domains shown) VH: QVQLVESGGGLVQPGGSLRLSCAASGFNIDDTYIHWVRQAPGKGLEWVARIYPTNGYTRYADSVKGRFTISADTSKNTAYLQMNSLRAEDTAVYYCSRWGGDGFYAMDVWGQGTLVTVSS VL: not shown | 0.827 |
| 4D5 as human IgG1, VH 30D and VL 52D (30D/52D) (antibody, V domains shown) VH: QVQLVESGGGLVQPGGSLRLSCAASGFNIDDTYIHWVRQAPGKGLEWVARIYPTNGYTRYADSVKGRFTISADTSKNTAYLQMNSLRAEDTAVYYCSRWGGDGFYAMDVWGQGTLVTVSS VL: QIQMTQSPSSLSASVGDRVTITCRASQDVNTAVAWYQQKPGKAPKLLIYSADFLESGVPSRFSGSRSGTDFTLTISSLQPEDFATYYCQQHYTTPPTFGQGTKVEIK | 0.978 |
